Reference: PMC8717942

Tests used:
K29-linked diubiquitin [1] = target: K29-linked diubiquitin (UniProt P0CG48); experiment: Western blot
K29-linked diubiquitin [2] = target: K29-linked diubiquitin (UniProt P0CG48); experiment: crystal structure
[3] = target: His-tagged K29-linked diubiquitin (UniProt P0CG48); experiment: SPR
[4] = target: biotinylated K29-linked diUb (chemically synthesized) (UniProt P0CG48); experiment: ELISA

B1: sAB-K29 (Fab, V domains shown)
VH: EVQLVESGGGLVQPGGSLRLSCAASGFNVSYSSIHWVRQAPGKGLEWVASIYSYYGSTYYADSVKGRFTISADTSKNTAYLQMNSLRAEDTAVYYCARYGFAGQPETWYAMDYWGQGTLVTVSS
VL: DIQMTQSPSSLSASVGDRVTITCRASQSVSSAVAWYQQKPGKAPKLLIYSASSLYSGVPSRFSGSRSGTDFTLTISSLQPEDFATYYCQQAYVEPITFGQGTKVEIK
fold more sensitive than for the other diUbs tested (K29-linked diubiquitin [1]): > 320 fold
lowest amount detected (K29-linked diubiquitin [1]): 0.78 ng
stoichiometry N (K29-linked diubiquitin [2]): 1
Kd [3]: 3.13 nM
EC50 [4]: 1.46 nM
